Assay results as given in the Immune Epitope Database (IEDB).

Key:
Assay in all cases: IEDB peptide-MHC binding, purified MHC/competitive/radioactivity; filed as Kd, often an IC50 or EC50 that approximates it; ≥ and ≤ were set here for values at or beyond the usual limits of such assays
HLA-A*03:01 = target: HLA-A*03:01
HLA-A*11:01 = target: HLA-A*11:01
HLA-A*31:01 = target: HLA-A*31:01
HLA-A*33:01 = target: HLA-A*33:01
HLA-A*68:01 = target: HLA-A*68:01
[1] = source organism: Dengue virus 2 Jamaica/1409/1983
[2] = source organism: Mammarenavirus lassaense
[3] = source organism: Vaccinia virus WR
[4] = source organism: Vaccinia virus Copenhagen
[5] = source organism: Dengue virus 1 Brazil/97-11/1997
[6] = source organism: Dengue virus 1 Singapore/S275/1990
[7] = source organism: SARS coronavirus Tor2
[8] = source organism: Mammarenavirus brazilense
[9] = source organism: Dengue virus 3 Martinique/1243/1999
[10] = source organism: Dengue virus 4 Philippines/H241/1956

Sequence: KTVWFVPSIK
- Kd (HLA-A*03:01; [1]): 6.64 nM
- Kd (HLA-A*11:01; [1]): 59.2 nM

Sequence: ITFFQEVPH
- Kd (HLA-A*03:01; [2]): 10800 nM
- Kd (HLA-A*11:01; [2]): 197 nM
- Kd (HLA-A*31:01; [2]): 8040 nM
- Kd (HLA-A*33:01; [2]): ≥ 77700 nM
- Kd (HLA-A*68:01; [2]): 72.5 nM

Sequence: IVTDLENRLK
- Kd (HLA-A*03:01; [3]): 25.4 nM
- Kd (HLA-A*11:01; [3]): 309 nM
- Kd (HLA-A*31:01; [3]): 548 nM
- Kd (HLA-A*33:01; [3]): ≥ 26700 nM
- Kd (HLA-A*68:01; [3]): 310 nM

Sequence: VIILAALFMY
- Kd (HLA-A*03:01; [3]): 2660 nM
- Kd (HLA-A*11:01; [3]): 449 nM
- Kd (HLA-A*31:01; [3]): ≥ 70000 nM
- Kd (HLA-A*33:01; [3]): ≥ 70000 nM
- Kd (HLA-A*68:01; [3]): ≥ 51800 nM

Sequence: CQLMYALEPR
- Kd (HLA-A*03:01; [4]): 58 nM
- Kd (HLA-A*11:01; [4]): 39.2 nM
- Kd (HLA-A*31:01; [4]): 1050 nM
- Kd (HLA-A*33:01; [4]): 14.4 nM
- Kd (HLA-A*68:01; [4]): 7.65 nM

Sequence: AVEDEEFWK
- Kd (HLA-A*11:01; source organism: Dengue virus 3 Sri Lanka/1266/2000): 939 nM

Sequence: DWLEKHGAER
- Kd (HLA-A*33:01; [5]): 127 nM

Sequence: GFEARIVDK
- Kd (HLA-A*03:01; [3]): ≥ 41000 nM
- Kd (HLA-A*11:01; [3]): 9030 nM
- Kd (HLA-A*31:01; [3]): 1600 nM
- Kd (HLA-A*33:01; [3]): 10300 nM
- Kd (HLA-A*68:01; [3]): 16300 nM

Sequence: LAMGIMILK
- Kd (HLA-A*03:01; [6]): 26.3 nM
- Kd (HLA-A*11:01; [6]): 9.52 nM
- Kd (HLA-A*68:01; [6]): 30.6 nM

Sequence: LSSKGLACY
- Kd (HLA-A*03:01; [3]): 777 nM
- Kd (HLA-A*11:01; [3]): 5490 nM
- Kd (HLA-A*31:01; [3]): 13300 nM
- Kd (HLA-A*33:01; [3]): ≥ 77700 nM
- Kd (HLA-A*68:01; [3]): 8340 nM

Sequence: KTKISVEKIK
- Kd (HLA-A*03:01; [3]): 4200 nM
- Kd (HLA-A*11:01; [3]): 275 nM
- Kd (HLA-A*31:01; [3]): 818 nM
- Kd (HLA-A*33:01; [3]): ≥ 70000 nM
- Kd (HLA-A*68:01; [3]): ≥ 24700 nM

Sequence: DLIKKSDAK
- Kd (HLA-A*03:01; [3]): ≥ 38000 nM
- Kd (HLA-A*11:01; [3]): ≥ 31300 nM
- Kd (HLA-A*31:01; [3]): ≥ 77900 nM
- Kd (HLA-A*33:01; [3]): 6630 nM
- Kd (HLA-A*68:01; [3]): 2160 nM

Sequence: GVAPGTAVLR
- Kd (HLA-A*03:01; [7]): 1320 nM
- Kd (HLA-A*11:01; [7]): 165 nM
- Kd (HLA-A*31:01; [7]): 2850 nM
- Kd (HLA-A*33:01; [7]): ≥ 41900 nM
- Kd (HLA-A*68:01; [7]): 43.2 nM

Sequence: RALKYDFNH
- Kd (HLA-A*03:01; [8]): 5700 nM
- Kd (HLA-A*11:01; [8]): 4370 nM
- Kd (HLA-A*31:01; [8]): 65.2 nM
- Kd (HLA-A*33:01; [8]): 7170 nM
- Kd (HLA-A*68:01; [8]): 6970 nM

Sequence: ILAEYIRHR
- Kd (HLA-A*03:01; [3]): 77.5 nM
- Kd (HLA-A*11:01; [3]): 1450 nM
- Kd (HLA-A*31:01; [3]): 13.6 nM
- Kd (HLA-A*33:01; [3]): 48.4 nM
- Kd (HLA-A*68:01; [3]): 15 nM

Sequence: EVHTWTEQYK
- Kd (HLA-A*68:01; [5]): 15.2 nM

Sequence: AVVCYNSNY
- Kd (HLA-A*03:01; [7]): 5400 nM
- Kd (HLA-A*11:01; [7]): 698 nM
- Kd (HLA-A*31:01; [7]): 14200 nM
- Kd (HLA-A*33:01; [7]): ≥ 77700 nM
- Kd (HLA-A*68:01; [7]): 10100 nM

Sequence: DVIGERIKR
- Kd (HLA-A*33:01; [9]): 38.7 nM
- Kd (HLA-A*68:01; [9]): 24.7 nM

Sequence: DENKWKSAR
- Kd (HLA-A*33:01; [1]): 306 nM

Sequence: TQSRDLEDFK
- Kd (HLA-A*03:01; [7]): 19300 nM
- Kd (HLA-A*11:01; [7]): 12500 nM
- Kd (HLA-A*31:01; [7]): 14600 nM
- Kd (HLA-A*33:01; [7]): ≥ 70000 nM
- Kd (HLA-A*68:01; [7]): ≥ 29000 nM

Sequence: SLLGSALLK
- Kd (HLA-A*03:01; [10]): 3.47 nM
- Kd (HLA-A*11:01; [10]): 21.3 nM

Sequence: LLRALRLTK
- Kd (HLA-A*03:01; [7]): 24.4 nM
- Kd (HLA-A*11:01; [7]): 3860 nM
- Kd (HLA-A*31:01; [7]): 851 nM
- Kd (HLA-A*33:01; [7]): ≥ 23900 nM
- Kd (HLA-A*68:01; [7]): ≥ 59900 nM
